The results in this text go back to article PMC9933118 (Proceedings of the National Academy of Sciences of the …, 2023).

In experiment [1] the target is BCL11A ZF456 (residues 737 to 835) (Homo sapiens, UniProt Q9H165, 15N-labelled in the NMR experiment).
The target in the next experiment is GST-ZF456 (Homo sapiens, UniProt Q9H165). Put plainly: pull-down.
Another experiment deals with ZF456 of BCL11B (Homo sapiens (assumed, as for BCL11A), UniProt Q9C0K0). Put plainly: AlphaScreen or HTRF. In general terms: In Alpha technology, singlet oxygen from a donor bead excites a nearby acceptor bead.
In a further experiment the target is Twin-Strep-tagged ZF456 (Homo sapiens, UniProt Q9H165). Put plainly: SPR.
Experiment [2] addresses biotinylated ZF456 protein (BCL11A) (Homo sapiens, UniProt Q9H165, biotin (site not stated)). Put plainly: AlphaScreen or HTRF.

Chain of biotinylated ZF456 protein (BCL11A) (Q9H165 737-835): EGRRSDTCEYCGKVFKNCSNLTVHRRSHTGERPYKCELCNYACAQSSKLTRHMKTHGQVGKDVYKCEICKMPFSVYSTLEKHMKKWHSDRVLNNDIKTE
Chain of Twin-Strep-tagged ZF456 (Q9H165 737-835): as above
Chain of BCL11A ZF456 (residues 737 to 835) (Q9H165 737-835): as above
Chain of GST-ZF456 (Q9H165 737-835): as above
Chain of ZF456 of BCL11B (Q9C0K0 whole entry, looked up, tested part not stated): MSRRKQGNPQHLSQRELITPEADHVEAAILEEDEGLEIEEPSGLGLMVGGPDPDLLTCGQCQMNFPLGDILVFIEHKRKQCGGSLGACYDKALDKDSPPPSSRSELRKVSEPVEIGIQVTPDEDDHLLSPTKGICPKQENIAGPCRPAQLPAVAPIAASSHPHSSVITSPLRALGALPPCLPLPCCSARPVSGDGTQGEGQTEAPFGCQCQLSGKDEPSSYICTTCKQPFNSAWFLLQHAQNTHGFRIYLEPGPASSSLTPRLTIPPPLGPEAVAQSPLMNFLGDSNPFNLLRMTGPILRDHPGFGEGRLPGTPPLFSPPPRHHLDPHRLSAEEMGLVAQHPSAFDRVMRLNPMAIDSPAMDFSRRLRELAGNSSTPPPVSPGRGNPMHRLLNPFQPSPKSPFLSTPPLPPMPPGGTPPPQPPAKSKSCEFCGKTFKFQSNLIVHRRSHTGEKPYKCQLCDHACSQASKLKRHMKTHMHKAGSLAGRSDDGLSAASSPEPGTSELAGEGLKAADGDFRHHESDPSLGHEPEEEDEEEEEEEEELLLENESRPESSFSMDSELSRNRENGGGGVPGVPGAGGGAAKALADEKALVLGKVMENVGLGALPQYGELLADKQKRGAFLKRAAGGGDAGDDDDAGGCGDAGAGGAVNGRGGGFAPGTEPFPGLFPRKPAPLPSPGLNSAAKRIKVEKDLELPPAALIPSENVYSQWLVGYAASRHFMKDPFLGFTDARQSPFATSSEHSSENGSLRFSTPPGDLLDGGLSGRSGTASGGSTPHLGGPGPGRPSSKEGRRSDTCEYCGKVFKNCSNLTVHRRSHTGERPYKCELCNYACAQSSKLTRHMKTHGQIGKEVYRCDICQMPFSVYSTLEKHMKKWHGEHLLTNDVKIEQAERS

B1: Nb5344 (VHH)
VHH: SGGGLVQAGDSLRLSCAASGSTFSGYAMGWYRQAPGKERELVAAITSSGASTYYADSVRGRFTISRDNAKNTVYLQMNSLKPEDTAVYYCAALDEGYLDYDSWGQGTQVTVSS
For the molecule B1, in experiment [1], the Kd turned out to be 3420 ± 80 nM.

B2: Nb5344(N74D) (VHH)
VHH: SGGGLVQAGDSLRLSCAASGSTFSGYAMGWYRQAPGKERELVAAITSSGASTYYADSVRGRFTISRDDAKNTVYLQMNSLKPEDTAVYYCAALDEGYLDYDSWGQGTQVTVSS
As to B2, binding in experiment [1] was characterised by a dissociation constant (Kd) of 1200 ± 50 nM.

B3: Nb61 (VHH)
VHH: QVQLVESGGGLVQAGGSLRLSCAASGFIFDSYAMGWYRQAPGKERELVAAITSSGSSTYYADSVKGRFTISRDNAKNTVYLQMNSLKPEDTAVYYCAALDYVIDGYWGQGTQVTVSS
In the case of B3, the binding result in the experiment with GST-ZF456 is on record as “binds”.

B4: Nb6101 (VHH)
VHH: RVQLVESGGGLVQAGGSLRLSCAASGFIFDSYAMGWYRQAPGKEMELVAAITSSGSSTYYADSVKGRFTISRDNAKNTVYLQMNSLKPEDTAVYYCAALDYVIDGYWGQGTQVTVSS
B4: the binding result with ZF456 of BCL11B is “no binding”.

B5: Nb6101(M45D) (VHH)
VHH: RVQLVESGGGLVQAGGSLRLSCAASGFIFDSYAMGWYRQAPGKEDELVAAITSSGSSTYYADSVKGRFTISRDNAKNTVYLQMNSLKPEDTAVYYCAALDYVIDGYWGQGTQVTVSS
Consider B5, for which, in the experiment with Twin-Strep-tagged ZF456, the Kd came out at 157 ± 9 nM and the “fold improvement of binding affinity against Nb6101” value was roughly 6 fold.

B6: Nb6101-14 (VHH)
VHH: RVQLVESGGGLVQAGGSLRLSCAADGFDFSSYAMGWYRQAPGYEDELVAAITASGSYTYYSDSVKGRFTISRDNAKNTVYLQMNSLKPEDTAVYYCAALSYVAEGYWGQGTQVTVSS
Turning to B6, the Kd in experiment [2] is 26.7 ± 0.7 nM.

B7: Nb6101-19 (VHH)
VHH: RVQLVESGGGLVQAGGSLRLSCAADGFDFKSYAMGWYRQAPGREDELVAAITASGDYTYYADSVKGRFTISRDNAKNTVYLQMNSLKPDDTAVYYCAALSYVAEGYWGQGTQVTVSS
As to B7, the Kd in experiment [2] stood at 21.9 ± 0.4 nM.

B8: Nb6101-22 (VHH)
VHH: RMQLVESGGGLVQAGGSLRLSCAADGFDFSSYAMGWYRQAPGREDELVAAITASGSYTYYSDSVKGRFTISRDNAKNTVYLQMNSLKPDDTAVYYCAALSYVAEGYWGQGTQVTVSS
Turning to B8, binding in experiment [2] was put at a Kd of 54.6 ± 0.9 nM. Against the preceding molecule, the Kd is about 2.5-fold higher.

B9: Nb6101-20 (VHH)
VHH: RVQLVESGGGLVQAGGSLRLSCAADGFDFKSYAMGWYRQAPGYEDELVAAITASGSYTYYSDSVKGRFTISRDNAKNTVYLQMNSLKPEDTAVYYCAALSYVAEGYWGQGTQVTVSS
Consider B9, for which binding in experiment [2] was characterised by a dissociation constant (Kd) of 77.2 ± 0.5 nM.

As a reminder, the Kd is the constant that tells how readily two partners part at equilibrium. Read a low Kd as higher affinity.
